The text below walks through data of PMC4932455, “Characterization of group II chaperonins from an acidothermophilic archaeon Picrophilus torridus” (FEBS Open Bio, 2016).

Residue numbers refer to the chain shown, from its start.

Assay [1] concerns the target T1, PtoCPNα (Picrophilus oshimae, UniProt Q6L132, D139G).
T1 construct: gene PTO0735; full length, untagged, pET23b in E. coli BL21(DE3); reassembled homo-oligomer (hexadecamer, 914 kDa); D139G from cloning; forward primer encodes MITGQTPILILKEGTERQ; locus assigned by printed order (other locus PTO1195)
T1 sequence (Q6L132 1-546 D139G): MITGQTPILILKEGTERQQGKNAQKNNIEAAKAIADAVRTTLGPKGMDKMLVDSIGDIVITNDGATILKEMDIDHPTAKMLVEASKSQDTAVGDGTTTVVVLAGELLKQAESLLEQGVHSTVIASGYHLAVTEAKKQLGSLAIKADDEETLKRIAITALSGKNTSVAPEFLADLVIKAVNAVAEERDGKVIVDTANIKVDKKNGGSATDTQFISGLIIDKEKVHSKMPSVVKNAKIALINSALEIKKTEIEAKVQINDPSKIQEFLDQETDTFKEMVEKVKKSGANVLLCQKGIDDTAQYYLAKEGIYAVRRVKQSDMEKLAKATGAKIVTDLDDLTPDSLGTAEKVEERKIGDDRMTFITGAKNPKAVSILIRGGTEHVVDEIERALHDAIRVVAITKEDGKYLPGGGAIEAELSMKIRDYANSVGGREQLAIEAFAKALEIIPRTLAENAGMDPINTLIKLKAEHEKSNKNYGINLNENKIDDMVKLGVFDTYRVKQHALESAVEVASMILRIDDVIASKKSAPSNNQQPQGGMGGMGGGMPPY
Briefly: ATP-dependent refolding of acid-denatured GFP. The format is biochemical. The settings on record: 1 mM ATP, 50 mM Tris-HCl pH 7.5, 25 mM MgCl2, 100 mM KCl, 50 °C (figure legend: 60 °C).

Assay [2] concerns the target T2, PtoCPNα (Picrophilus oshimae, UniProt Q6L132, D139G/S260C/C290S).
T2 construct: gene PTO0735; full length, untagged, pET23b in E. coli BL21(DE3); reassembled homo-oligomer (hexadecamer, 914 kDa); D139G from cloning; forward primer encodes MITGQTPILILKEGTERQ; locus assigned by printed order (other locus PTO1195)
T2 sequence (Q6L132 1-546 D139G/S260C/C290S): T1 sequence (Q6L132 1-546 D139G) with S260C, C290S
Put plainly: fluorescence change of fluorescein on Cys260. The format is binding. The settings on record: 1 mM ATP, 50 nM chaperonin, 50 mM Tris-HCl pH 7.5, 25 mM MgCl2, 100 mM KCl, 60 °C; protein labelled with fluorescein 5-maleimide.

In assay [3] the target is α type group II CPN of Picrophilus torridus (Picrophilus torridus). Briefly: SEC-MALS; WTC-100S5 column, 25 °C, 50 mM Tris-HCl pH 7.5, 25 mM MgCl2, 0.2 mM ATP, 300 mM (NH4)SO4, 1 mM DTT, 1.0 mL/min; purified oligomers. For orientation: SEC sorts molecules by how far they enter the pores of the column.
Assay [4] has as its target Green fluorescent protein, acid-denatured [GFP: P42212]. Briefly: GFP releasing assay (recovery of GFP fluorescence, fit of two consecutive steps); acid-denatured GFP captured by 400 nM PtoCPNα at 60 °C for 5 min in HKM buffer with 1 mM DTT, then diluted 10-fold into the same buffer at 30 °C; k1 is the release of denatured GFP.
For assay [5] the target is unchanged. Briefly: GFP releasing assay (recovery of GFP fluorescence, fit of two consecutive steps); acid-denatured GFP captured by 400 nM PtoCPNα at 60 °C for 5 min in HKM buffer with 1 mM DTT, then diluted 10-fold into the same buffer at 50 °C; k1 is the release of denatured GFP.
The target of assay [6] is β type group II CPN of Picrophilus torridus (Picrophilus torridus). Put plainly: SEC-MALS; WTC-100S5 column, 25 °C, 50 mM Tris-HCl pH 7.5, 25 mM MgCl2, 0.2 mM ATP, 300 mM (NH4)SO4, 1 mM DTT, 1.0 mL/min; purified oligomers.

`Nc1ncnc2c1ncn2[C@@H]1O[C@H](COP(=O)(O)OP(=O)(O)OP(=O)(O)O)[C@@H](O)[C@H]1O` [ATP]: the “ATP-dependent refolding of acid-denatured GFP” value in assay [1] is given as “enhances its refolding in an ATP‐dependent manner”. For the same compound, the “% decrease in maximal fluorescence intensity” value in assay [2] is ~ 15.5%.

Broadly, the stoichiometry N is the number of molecules, sites or subunits per partner or assembly. Broadly, the koff is the first-order rate constant of dissociation. A low value points to a long-lived complex. In turn, “α type group II CPN of Picrophilus torridus (complex)” gave a stoichiometry N in assay [3] of 16. The off-rate (koff) is 0.478 s⁻¹ in assay [4] and 0.118 s⁻¹ in assay [5].

“β type group II CPN of Picrophilus torridus (complex)” displayed a stoichiometry N in assay [6] of 14.
